Values of other authors in paper PMC12206923.

Molecular target: dimeric IL-2 receptor (Homo sapiens) (UniProt P14784)
UniProt P14784, sequence (P14784 27-240, chain 1 of 2): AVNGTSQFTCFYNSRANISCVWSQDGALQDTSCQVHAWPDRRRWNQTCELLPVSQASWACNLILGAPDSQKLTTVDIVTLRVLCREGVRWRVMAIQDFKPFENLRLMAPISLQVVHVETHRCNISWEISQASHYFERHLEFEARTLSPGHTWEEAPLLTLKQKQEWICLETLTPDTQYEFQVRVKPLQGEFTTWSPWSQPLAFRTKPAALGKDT
UniProt P14784, sequence (P31785 23-262, chain 2 of 2, further chain): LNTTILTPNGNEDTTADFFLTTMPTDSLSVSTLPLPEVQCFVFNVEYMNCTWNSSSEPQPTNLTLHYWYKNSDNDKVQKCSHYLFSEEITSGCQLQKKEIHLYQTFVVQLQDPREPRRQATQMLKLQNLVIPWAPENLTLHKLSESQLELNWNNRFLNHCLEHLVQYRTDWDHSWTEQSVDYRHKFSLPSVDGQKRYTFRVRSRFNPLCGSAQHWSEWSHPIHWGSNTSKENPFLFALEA

IL-2, sequence (P60568 21-153): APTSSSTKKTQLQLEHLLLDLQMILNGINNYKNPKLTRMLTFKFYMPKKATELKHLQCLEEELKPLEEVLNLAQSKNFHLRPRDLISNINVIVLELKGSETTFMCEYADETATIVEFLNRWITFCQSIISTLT

In the case of IL-2 (from UniProt P60568), the Kd is listed as 1 nM.
